# In article PMC6607443, “Systematic identification of recognition motifs for the hub protein LC8” (Life Science Alliance, 2019):
# B1: bassoon (BSN) peptide, modified version with the TQT motif near the C-terminus (peptide)
# peptide: PRATAEFSTQTPSP
# notes: also called BSN^II; modified BSN peptide
# Biological target: dynein light chain LC8 (UniProt P63167 1-89)
# Test: ITC; peptide (500 μM) injected into 25 μM LC8 in the cell; 25°C; 50 mM sodium phosphate, 50 mM NaCl, 1 mM sodium azide, 5 mM β-mercaptoethanol, pH 7.5; single-site model; averages of two to three experiments
# Conditions: both partners purified
# Chain of dynein light chain LC8 (P63167 whole entry): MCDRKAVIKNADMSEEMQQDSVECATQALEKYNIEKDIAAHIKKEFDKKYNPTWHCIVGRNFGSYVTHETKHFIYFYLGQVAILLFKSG
Binder,stoichiometry N [peptide per LC8 chain],Kd [µM]
YSRKSRCVSVQTDPT [SON peptide],1,–
ARAGRSVSTQTGSM [CIZ1 peptide],1,–
HPETQDSSTQTDTS [SPAG5 peptide],1,–
YDSMDHLDKQTQTPKT [CCL2 peptide],1,–
GQGAALTTATQTTHLE [GP1BA peptide],–,> 25
SPSPTGLPTQTPGF [ARAP3 peptide],–,> 25
QDFMKHLDKKTQTPKL [CCL7 peptide],1,–
APMSCDKSTQTPSP [BCL2L11 peptide],1,0.16
DDNHWTRSTQTTRE [MUC4 peptide with N-terminal aspartates (DDNHWTRSTQTTRE)],1,–
DDSGGNATTQTTSD [ROR1 peptide],–,> 25
DDHSREKGTQTSGD [SLC9A2 peptide],1,–
PAPPSYSDKGVQTPSK [ZFPM1 peptide],1,–
SQNHWTRSTQTTRE [MUC4 peptide (SQNHWTRSTQTTRE)],1,–
PVLTSATGTQTSPA [MUC3A peptide],1,–
SKTQQTFGSQTECT [TOGARAM1 peptide],–,> 25
YGCTRHQSVQTEDG [MAST1 peptide],1,–
SSSTRSIDTQTPSV [GLCCI1 peptide],1,–
EKELRHIGTQISSD [ICE1 peptide],1,–
AKESCNMETQTSST [OFD1 peptide],1,–
B1,1,–
NQSFTTASTQTPPQ [CAPRIN2 peptide],1,–
